Experimental data published in IntAct's records for PubMed 18202720.

B1: Type-1 angiotensin II receptor A (Rattus norvegicus (Rat)), P25095 (parent)
chain: MALNSSAEDGIKRIQDDCPKAGRHSYIFVMIPTLYSIIFVVGIFGNSLVVIVIYFYMKLKTVASVFLLNLALADLCFLLTLPLWAVYTAMEYRWPFGNHLCKIASASVSFNLYASVFLLTCLSIDRYLAIVHPMKSRLRRTMLVAKVTCIIIWLMAGLASLPAVIHRNVYFIENTNITVCAFHYESRNSTLPIGLGLTKNILGFLFPFLIILTSYTLIWKALKKAYEIQKNKPRNDDIFRIIMAIVLFFFFSWVPHQIFTFLDVLIQLGVIHDCKISDIVDTAMPITICIAYFNNCLNPLFYGFLGKKFKKYFLQLLKYIPPKAKSHSSLSTKMSTLSYRPSDNMSSSAKKPASCFEVE

Variants of: B1
Conditions: with angt_human AGT

**Q.** Which “effect of a mutation on the interaction” value does the source give for N295C here?
**A.** decreasing interaction

**Q.** Which “effect of a mutation on the interaction” value does the source give for C76A;C289A here?
**A.** decreasing interaction

Variants of: B1
Conditions: with angt_human AGT
Remark: another data set of the same source

**Q.** T287A was tested. Which “effect of a mutation on the interaction” value did it give?
**A.** decreasing interaction

Variants of: B1
Conditions: with angt_human AGT
Remark: another data set of the same source

**Q.** How did the “effect of a mutation on the interaction” value turn out when N294C was run?
**A.** increasing interaction

**Q.** With C76A;C289A as the variant, how does the “effect of a mutation on the interaction” value read?
**A.** increasing interaction

Variants of: B1
Conditions: with angt_human AGT
Remark: another data set of the same source

**Q.** C149A was tested. Which “effect of a mutation on the interaction” value did it give?
**A.** decreasing interaction

Variants of: B1
Conditions: with angt_human AGT
Remark: another data set of the same source

**Q.** With C76A;C289A;C296A as the variant, how does the “effect of a mutation on the interaction” value read?
**A.** decreasing interaction

Variants of: B1
Conditions: with angt_human AGT
Remark: another data set of the same source

**Q.** How did the “effect of a mutation on the interaction” value turn out when C76A;C296A was run?
**A.** decreasing interaction

Variants of: B1
Conditions: with angt_human AGT
Remark: another data set of the same source

**Q.** How did the “effect of a mutation on the interaction” value turn out when Y292A was run?
**A.** decreasing interaction

Variants of: B1
Conditions: with angt_human AGT
Remark: another data set of the same source

**Q.** How did the “effect of a mutation on the interaction” value turn out when C76A;C289A was run?
**A.** decreasing interaction

Variants of: B1
Conditions: with angt_human AGT
Remark: another data set of the same source

**Q.** Which “effect of a mutation on the interaction” value does the source give for Q257A here?
**A.** decreasing interaction
